B1: human TDP-43 NTD-ΔNLS-RRM1-RRM2 (residues 1-85 and 101-266) (domain or fragment, UniProt Q13148 1-85, looked up)
chain: MSEYIRVTEDENDEPIEIPSEDDGTVLLSTVTAQFPGACGLRYRNPVSQCMRGVRLVEGILHAPDAGWGNLVYVVNYPKDNKRKMQKTSDLIVLGLPWKTTEQDLKEYFSTFGEVLMVQVKKDLKTGHSKGFGFVRFTEYETQVKVMSQRHMIDGRWCDCKLPNSKQSQDEPLRSRKVFVGRCTEDMTEDELREFFSQYGDVMDVFIPKPFRAFAFVTFADDQIAQSLCGEDLIIKGISVHISNAEPKHNS
notes: Internal deletion of the NLS linker (residues 86-100); no replacing linker is mentioned; Tags removed with TEV protease; also called hTDP-43 NTD-ΔNLS-RRM1-RRM2; source: E. coli BL21 KRX, purified (NiNTA, TEV digestion, SEC)
B2: human TDP-43 NLS-RRM1-RRM2 (residues 85-266) (domain or fragment, UniProt Q13148 85-266, looked up)
chain: MDETDASSAVKVKRAVQKTSDLIVLGLPWKTTEQDLKEYFSTFGEVLMVQVKKDLKTGHSKGFGFVRFTEYETQVKVMSQRHMIDGRWCDCKLPNSKQSQDEPLRSRKVFVGRCTEDMTEDELREFFSQYGDVMDVFIPKPFRAFAFVTFADDQIAQSLCGEDLIIKGISVHISNAEPKHNS
notes: Tags removed with TEV protease; also called hTDP-43 NLS-RRM1-RRM2; source: E. coli BL21 KRX, purified (NiNTA, TEV digestion, SEC)
B3: human TDP-43 NTD (residues 1-85) (domain or fragment, UniProt Q13148 1-85, looked up)
chain: MSEYIRVTEDENDEPIEIPSEDDGTVLLSTVTAQFPGACGLRYRNPVSQCMRGVRLVEGILHAPDAGWGNLVYVVNYPKDNKRKM
notes: Tags removed with TEV protease; also called hTDP-43 NTD; source: E. coli BL21 KRX, purified (NiNTA, TEV digestion, SEC)
B4: recombinant mouse LIAT1 (ligand of Ate1 protein), full length (natural protein, UniProt Q810M6 1-228, looked up)
chain: MAGRGGTGAAEYGEEGEEEEEEEAREGGAEGSPGSKLPPIVGTASELAKRKVKKKKKKKKTKGSGKGDADKHHSRGRKNQPLSSSFHDILNPHKDHGLRAEPRDKEENRQTLPYSYSINHPCFAEIEDTLSSQINESLRWDGILTDPEAEKERIRIYKLNRRKRYRLMALKCFHSDPCVEESVENLPYLSDKDCSPCSKQPSSKGDHAHSYFEASKLLHPELATTVAE
notes: LIAT1 (ligand of Ate1), Mus musculus, full length, theoretical molecular weight ~24 kDa; Tags removed with TEV protease; also called mLIAT1; source: E. coli BL21 KRX, purified (NiNTA, TEV digestion, SEC)

Target: the molecule itself
Assay: SEC; 500 uL of tagless purified protein on Superdex 75 10/30 in SEC buffer (150 mM KCl, 20 mM NaCl, 1 mM MgCl2, 5% glycerol, 50 mM HEPES pH 7.7), 0.5 mL/min; size from a calibration curve of standard proteins

Row | Protein | stoichiometry N
1 | B1 | 2
2 | B2 | 2
3 | B3 | 2
4 | B4 | 2

— paper PMC11287377, “tRNA ^Arg binds in vitro TDP-43 RNA recognition motifs and ligand of Ate1 protein LIAT1” (microPublication Biology, 2024)
